Publication PMC8117670 (Science (New York, N.Y.), 2021)

T1: Med23 (human, UniProt Q9ULK4 1-1368)
T1 sequence: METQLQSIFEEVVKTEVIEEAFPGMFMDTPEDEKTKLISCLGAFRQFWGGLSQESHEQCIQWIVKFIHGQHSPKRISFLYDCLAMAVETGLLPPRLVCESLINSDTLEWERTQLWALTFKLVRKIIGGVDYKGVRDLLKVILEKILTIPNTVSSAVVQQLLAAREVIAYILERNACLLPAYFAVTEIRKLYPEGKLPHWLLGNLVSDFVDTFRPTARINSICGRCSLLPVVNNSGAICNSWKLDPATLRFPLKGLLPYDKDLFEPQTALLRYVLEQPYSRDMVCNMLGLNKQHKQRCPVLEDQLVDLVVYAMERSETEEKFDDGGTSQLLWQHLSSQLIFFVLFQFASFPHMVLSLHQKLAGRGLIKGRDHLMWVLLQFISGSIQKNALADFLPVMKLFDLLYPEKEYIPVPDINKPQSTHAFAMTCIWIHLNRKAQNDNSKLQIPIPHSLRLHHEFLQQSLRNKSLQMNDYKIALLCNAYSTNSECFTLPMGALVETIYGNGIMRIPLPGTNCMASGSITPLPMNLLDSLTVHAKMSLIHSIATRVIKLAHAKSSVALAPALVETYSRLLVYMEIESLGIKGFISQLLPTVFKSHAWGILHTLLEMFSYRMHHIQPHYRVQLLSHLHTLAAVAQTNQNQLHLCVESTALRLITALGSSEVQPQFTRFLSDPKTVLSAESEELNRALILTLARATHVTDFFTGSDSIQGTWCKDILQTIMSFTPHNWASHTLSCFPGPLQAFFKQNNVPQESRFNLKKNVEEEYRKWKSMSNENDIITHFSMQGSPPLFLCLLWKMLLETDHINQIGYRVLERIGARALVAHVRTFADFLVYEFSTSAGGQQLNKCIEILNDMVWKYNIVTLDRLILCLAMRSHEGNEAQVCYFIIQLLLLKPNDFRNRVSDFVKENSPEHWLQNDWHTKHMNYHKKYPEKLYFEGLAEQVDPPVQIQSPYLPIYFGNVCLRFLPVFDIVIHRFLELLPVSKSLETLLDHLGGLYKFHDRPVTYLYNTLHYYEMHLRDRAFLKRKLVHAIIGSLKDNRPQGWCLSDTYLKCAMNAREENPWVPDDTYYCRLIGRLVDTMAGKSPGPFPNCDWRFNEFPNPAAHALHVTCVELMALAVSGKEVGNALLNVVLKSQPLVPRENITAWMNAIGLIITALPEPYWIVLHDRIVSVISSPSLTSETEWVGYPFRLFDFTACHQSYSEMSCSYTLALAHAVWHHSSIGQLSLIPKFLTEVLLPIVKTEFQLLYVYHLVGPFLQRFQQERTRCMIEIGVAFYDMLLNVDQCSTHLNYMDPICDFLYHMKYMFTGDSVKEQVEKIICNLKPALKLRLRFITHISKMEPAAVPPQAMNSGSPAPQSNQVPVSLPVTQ

B1: Med4 (natural protein, human)
chain: MAASSSGEKEKERLGGGLGVAGGNSTRERLLSALEDLEVLSRELIEMLAISRNQKLLQAGEENQVLELLIHRDGEFQELMKLALNQGKIHHEMQVLEKEVEKRDSDIQQLQKQLKEAEQILATAVYQAKEKLKSIEKARKGAISSEEIIKYAHRISASNAVCAPLTWVPGDPRRPYPTDLEMRSGLLGQMNNPSTNGVNGHLPGDALAAGRLPDVLAPQYPWQSNDMSMNMLPPNHSSDFLLEPPGHNKENEDDVEIMSTDSSSSSSESD
B2: Med24 (natural protein, human)
chain: MKVVNLKQAILQAWKERWSDYQWAINMKKFFPKGATWDILNLADALLEQAMIGPSPNPLILSYLKYAISSQMVSYSSVLTAISKFDDFSRDLCVQALLDIMDMFCDRLSCHGKAEECIGLCRALLSALHWLLRCTAASAERLREGLEAGTPAAGEKQLAMCLQRLEKTLSSTKNRALLHIAKLEEASSWTAIEHSLLKLGEILANLSNPQLRSQAEQCGTLIRSIPTMLSVHAEQMHKTGFPTVHAVILLEGTMNLTGETQSLVEQLTMVKRMQHIPTPLFVLEIWKACFVGLIESPEGTEELKWTAFTFLKIPQVLVKLKKYSHGDKDFTEDVNCAFEFLLKLTPLLDKADQRCNCDCTNFLLQECGKQGLLSEASVNNLMAKRKADREHAPQQKSGENANIQPNIQLILRAEPTVTNILKTMDADHSKSPEGLLGVLGHMLSGKSLDLLLAAAAATGKLKSFARKFINLNEFTTYGSEESTKPASVRALLFDISFLMLCHVAQTYGSEVILSESRTGAEVPFFETWMQTCMPEEGKILNPDHPCFRPDSTKVESLVALLNNSSEMKLVQMKWHEACLSISAAILEILNAWENGVLAFESIQKITDNIKGKVCSLAVCAVAWLVAHVRMLGLDEREKSLQMIRQLAGPLFSENTLQFYNERVVIMNSILERMCADVLQQTATQIKFPSTGVDTMPYWNLLPPKRPIKEVLTDIFAKVLEKGWVDSRSIHIFDTLLHMGGVYWFCNNLIKELLKETRKEHTLRAVELLYSIFCLDMQQVTLVLLGHILPGLLTDSSKWHSLMDPPGTALAKLAVWCALSSYSSHKGQASTRQKKRHREDIEDYISLFPLDDVQPSKLMRLLSSNEDDANILSSPTDRSMSSSLSASQLHTVNMRDPLNRVLANLFLLISSILGSRTAGPHTQFVQWFMEECVDCLEQGGRGSVLQFMPFTTVSELVKVSAMSSPKVVLAITDLSLPLGRQVAAKAIAAL
B3: Med9 (natural protein, human)
chain: MASAGVAAGRQAEDVLPPTSDQPLPDTKPLPPPQPPPVPAPQPQQSPAPRPQSPARAREEENYSFLPLVHNIIKCMDKDSPEVHQDLNALKSKFQEMRKLISTMPGIHLSPEQQQQQLQSLREQVRTKNELLQKYKSLCMFEIPKE
B4: Med17 (natural protein, human)
chain: MSGVRAVRISIESACEKQVHEVGLDGTETYLPPLSMSQNLARLAQRIDFSQGSGSEEEEAAGTEGDAQEWPGAGSSADQDDEEGVVKFQPSLWPWDSVRNNLRSALTEMCVLYDVLSIVRDKKFMTLDPVSQDALPPKQNPQTLQLISKKKSLAGAAQILLKGAERLTKSVTENQENKLQRDFNSELLRLRQHWKLRKVGDKILGDLSYRSAGSLFPHHGTFEVIKNTDLDLDKKIPEDYCPLDVQIPSDLEGSAYIKVSIQKQAPDIGDLGTVNLFKRPLPKSKPGSPHWQTKLEAAQNVLLCKEIFAQLSREAVQIKSQVPHIVVKNQIISQPFPSLQLSISLCHSSNDKKSQKFATEKQCPEDHLYVLEHNLHLLIREFHKQTLSSIMMPHPASAPFGHKRMRLSGPQAFDKNEINSLQSSEGLLEKIIKQAKHIFLRSRAAATIDSLASRIEDPQIQAHWSNINDVYESSVKVLITSQGYEQICKSIQLQLNIGVEQIRVVHRDGRVITLSYQEQELQDFLLSQMSQHQVHAVQQLAKVMGWQVLSFSNHVGLGPIESIGNASAITVASPSGDYAISVRNGPESGSKIMVQFPRNQCKDLPKSDVLQDNKWSHLRGPFKEVQWNKMEGRNFVYKMELLMSALSPCLL
B5: Med31 (natural protein)
chain: MAAAVAMETDDAGNRLRFQLELEFVQCLANPNYLNFLAQRGYFKDKAFVNYLKYLLYWKDPEYAKYLKYPQCLHMLELLQYEHFRKELVNAQCAKFIDEQQILHWQHYSRKRMRLQQALAEQQQQNNTSGK
B6: Med25 (natural protein, human)
chain: MVPGSEGPARAGSVVADVVFVIEGTANLGPYFEGLRKHYLLPAIEYFNGGPPAETDFGGDYGGTQYSLVVFNTVDCAPESYVQCHAPTSSAYEFVTWLDGIKFMGGGGESCSLIAEGLSTALQLFDDFKKMREQIGQTHRVCLLICNSPPYLLPAVESTTYSGCTTENLVQQIGERGIHFSIVSPRKLPALRLLFEKAAPPALLEPLQPPTDVSQDPRHMVLVRGLVLPVGGGSAPGPLQSKQPVPLPPAAPSGATLSAAPQQPLPPVPPQYQVPGNLSAAQVAAQNAVEAAKNQKAGLGPRFSPITPLQQAAPGVGPPFSQAPAPQLPPGPPGAPKPPPASQPSLVSTVAPGSGLAPTAQPGAPSMAGTVAPGGVSGPSPAQLGAPALGGQQSVSNKLLAWSGVLEWQEKPKPASVDANTKLTRSLPCQVYVNHGENLKTEQWPQKLIMQLIPQQLLTTLGPLFRNSRMVQFHFTNKDLESLKGLYRIMGNGFAGCVHFPHTAPCEVRVLMLLYSSKKKIFMGLIPYDQSGFVNGIRQVITNHKQVQQQKLEQQQRGMGGQQAPPGLGPILEDQARPSQNLLQLRPPQPQPQGTVGASGATGQPQPQGTAQPPPGAPQGPPGAASGPPPPGPILRPQNPGANPQLRSLLLNPPPPQTGVPPPQASLHHLQPPGAPALLPPPHQGLGQPQLGPPLLHPPPAQSWPAQLPPRAPLPGQMLLSGGPRGPVPQPGLQPSVMEDDILMDLI

Assays:
Experiment in all cases: cryo-EM structure
Med1 = Med1 (human, UniProt Q15648 1-1581)
Chain of Med1 (Q15648 whole entry): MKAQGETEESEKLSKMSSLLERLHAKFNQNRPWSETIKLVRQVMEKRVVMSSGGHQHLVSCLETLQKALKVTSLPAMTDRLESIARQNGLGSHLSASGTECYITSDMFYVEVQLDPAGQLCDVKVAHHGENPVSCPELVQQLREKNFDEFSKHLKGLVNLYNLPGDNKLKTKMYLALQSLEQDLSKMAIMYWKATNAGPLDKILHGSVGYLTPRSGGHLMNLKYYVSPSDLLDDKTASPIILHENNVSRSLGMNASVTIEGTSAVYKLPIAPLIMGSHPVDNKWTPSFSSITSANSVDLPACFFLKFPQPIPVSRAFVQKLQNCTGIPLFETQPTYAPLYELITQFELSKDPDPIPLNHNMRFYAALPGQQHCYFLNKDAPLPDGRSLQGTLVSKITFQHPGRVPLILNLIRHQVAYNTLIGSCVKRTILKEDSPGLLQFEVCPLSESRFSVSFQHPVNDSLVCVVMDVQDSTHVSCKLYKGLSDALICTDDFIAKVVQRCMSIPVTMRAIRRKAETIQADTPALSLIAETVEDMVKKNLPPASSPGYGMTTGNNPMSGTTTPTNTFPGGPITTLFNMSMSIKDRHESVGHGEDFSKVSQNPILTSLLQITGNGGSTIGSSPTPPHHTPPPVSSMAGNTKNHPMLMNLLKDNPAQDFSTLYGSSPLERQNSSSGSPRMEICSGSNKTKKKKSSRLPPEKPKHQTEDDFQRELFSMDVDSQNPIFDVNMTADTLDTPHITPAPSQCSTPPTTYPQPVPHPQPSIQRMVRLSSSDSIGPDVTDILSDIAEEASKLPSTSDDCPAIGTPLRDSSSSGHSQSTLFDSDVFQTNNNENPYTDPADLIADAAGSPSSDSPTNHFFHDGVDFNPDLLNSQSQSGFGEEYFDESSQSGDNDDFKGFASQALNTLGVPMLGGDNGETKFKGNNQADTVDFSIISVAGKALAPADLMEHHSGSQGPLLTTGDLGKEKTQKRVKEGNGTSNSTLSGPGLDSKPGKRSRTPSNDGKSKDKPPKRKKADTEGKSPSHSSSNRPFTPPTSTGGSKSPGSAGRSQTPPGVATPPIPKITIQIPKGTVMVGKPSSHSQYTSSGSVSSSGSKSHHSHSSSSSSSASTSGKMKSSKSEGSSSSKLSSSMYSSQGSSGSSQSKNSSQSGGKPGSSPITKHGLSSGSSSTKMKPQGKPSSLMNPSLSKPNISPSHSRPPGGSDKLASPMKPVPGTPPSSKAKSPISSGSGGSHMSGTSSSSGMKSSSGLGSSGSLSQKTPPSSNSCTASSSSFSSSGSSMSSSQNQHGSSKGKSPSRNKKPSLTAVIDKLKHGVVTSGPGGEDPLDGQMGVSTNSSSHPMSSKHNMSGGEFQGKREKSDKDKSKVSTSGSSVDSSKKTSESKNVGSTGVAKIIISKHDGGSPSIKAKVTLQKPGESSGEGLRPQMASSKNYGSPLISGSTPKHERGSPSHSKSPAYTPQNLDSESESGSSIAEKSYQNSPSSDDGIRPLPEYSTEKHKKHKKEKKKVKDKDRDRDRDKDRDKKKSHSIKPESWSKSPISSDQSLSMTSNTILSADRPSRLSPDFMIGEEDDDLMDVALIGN

Med14 = Med14 (human, UniProt O60244 1-1454)
Chain of Med14 (O60244 whole entry): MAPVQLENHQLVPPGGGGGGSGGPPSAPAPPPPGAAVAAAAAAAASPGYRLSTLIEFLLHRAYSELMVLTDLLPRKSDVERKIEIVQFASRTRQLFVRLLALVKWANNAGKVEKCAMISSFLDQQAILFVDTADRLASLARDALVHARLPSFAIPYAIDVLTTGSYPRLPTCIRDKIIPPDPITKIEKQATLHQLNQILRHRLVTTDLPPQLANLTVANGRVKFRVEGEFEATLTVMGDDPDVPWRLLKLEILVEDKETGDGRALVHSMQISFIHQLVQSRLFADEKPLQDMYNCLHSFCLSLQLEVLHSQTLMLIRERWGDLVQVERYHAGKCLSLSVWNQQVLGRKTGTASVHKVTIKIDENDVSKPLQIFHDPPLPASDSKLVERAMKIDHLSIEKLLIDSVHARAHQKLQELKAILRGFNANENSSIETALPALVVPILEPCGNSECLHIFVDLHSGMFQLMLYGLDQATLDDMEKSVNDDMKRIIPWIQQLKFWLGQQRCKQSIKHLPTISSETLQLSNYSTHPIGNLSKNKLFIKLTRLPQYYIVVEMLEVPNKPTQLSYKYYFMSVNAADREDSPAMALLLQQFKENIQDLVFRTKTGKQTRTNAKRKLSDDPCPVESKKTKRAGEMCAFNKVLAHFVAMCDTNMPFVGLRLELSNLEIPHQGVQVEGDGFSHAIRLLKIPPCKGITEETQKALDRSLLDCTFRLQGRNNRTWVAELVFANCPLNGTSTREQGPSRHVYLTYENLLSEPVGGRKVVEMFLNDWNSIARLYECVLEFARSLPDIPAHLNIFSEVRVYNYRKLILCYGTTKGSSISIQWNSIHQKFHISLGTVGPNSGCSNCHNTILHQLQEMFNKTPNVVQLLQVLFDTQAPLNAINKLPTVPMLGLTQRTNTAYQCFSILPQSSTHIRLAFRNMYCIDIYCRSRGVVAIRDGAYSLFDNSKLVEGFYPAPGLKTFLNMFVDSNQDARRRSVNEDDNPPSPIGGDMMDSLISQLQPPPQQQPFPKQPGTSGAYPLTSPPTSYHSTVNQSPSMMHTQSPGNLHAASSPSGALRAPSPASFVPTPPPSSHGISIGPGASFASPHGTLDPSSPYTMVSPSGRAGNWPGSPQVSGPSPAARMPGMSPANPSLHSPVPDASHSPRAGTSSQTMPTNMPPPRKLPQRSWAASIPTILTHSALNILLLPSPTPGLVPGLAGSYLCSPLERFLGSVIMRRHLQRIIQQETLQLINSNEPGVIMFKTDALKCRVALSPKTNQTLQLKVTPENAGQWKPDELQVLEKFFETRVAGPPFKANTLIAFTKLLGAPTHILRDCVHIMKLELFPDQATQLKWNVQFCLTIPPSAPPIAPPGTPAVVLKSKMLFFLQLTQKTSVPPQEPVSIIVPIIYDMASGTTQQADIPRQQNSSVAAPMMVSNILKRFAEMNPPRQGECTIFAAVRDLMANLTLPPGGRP

[1] = target: RPB1, the largest subunit of RNA polymerase II (human, UniProt P24928 1-1970)
Med23 = target: T1, Med23

Row | Binder | binding result (Med1) | also measured
1 | B1 | binds | –
2 | B2 | binds | –
3 | B3 | binds | –
4 | B4 | – | binding result (Med14): binds
5 | B5 | – | binding result [1]: binds
6 | B6 | – | binding result (Med23): binds
